Data on nine substances can be found in article PMC6254361, “The properties of Msh2–Msh6 ATP binding mutants suggest a signal amplification mechanism in DNA mismatch repair” (The Journal of Biological Chemistry, 2018).

For data set [1], the target named is Walker A Lys mutant Msh2–Msh6 complexes (S. cerevisiae). Kind of data set: SPR; Biacore T100; 236-bp GT mispair DNA held by biotin-streptavidin, other end blocked by lacO-LacI; 20 nM Msh2–Msh6, 250 μM ATP, 30 nM LacI for 100 s, then the same plus 40 nM Mlh1–Pms1 for 300 s; recruitment read as the increase in RU over steady-state Msh2–Msh6; 25 mM Tris pH 8, 4 mM MgCl2, 110 mM NaCl, 0.01% Igepal, 2 mM DTT, 2% glycerol; 10 °C, 20 μl/min. The following applies: scale: Mlh1–Pms1 complexes bound per Msh2–Msh6 complex.

The target in data set [2] is S. cerevisiae Mlh1–Pms1 [S. cerevisiae]. Kind of data set: SPR. The following applies: GT mispair-containing double end-blocked DNA surface; buffer with ATP and LacI; read off a plot.
The subject of data set [3] is Msh2;Msh6 (Saccharomyces cerevisiae;Saccharomyces cerevisiae). Kind of data set: SPR. The following applies: SPR on streptavidin surface; buffer, salt, pH and temperature not given in the material; with or without 0.1-2.5 mM ATP; LacI end block, released by 1 mM IPTG.
Data set [4] concerns Msh2(K694A);Msh6 (Saccharomyces cerevisiae;Saccharomyces cerevisiae). The data set can be described thus: SPR. The following applies: ATP up to 2.5 mM, LacI; SPR on streptavidin surface; buffer, salt, pH and temperature not given in the material; with or without 0.1-2.5 mM ATP; LacI end block, released by 1 mM IPTG.
The test system of data set [5] is Msh2(K694M);Msh6 (Saccharomyces cerevisiae;Saccharomyces cerevisiae). The data set can be described thus: SPR. The conditions noted are these: ATP up to 2.5 mM, LacI; SPR on streptavidin surface; buffer, salt, pH and temperature not given in the material; with or without 0.1-2.5 mM ATP; LacI end block, released by 1 mM IPTG.
For data set [6], the system named is Msh2(K694R);Msh6 (Saccharomyces cerevisiae;Saccharomyces cerevisiae). Kind of data set: SPR. The following applies: ATP up to 2.5 mM, LacI; SPR on streptavidin surface; buffer, salt, pH and temperature not given in the material; with or without 0.1-2.5 mM ATP; LacI end block, released by 1 mM IPTG.
The subject of data set [7] is Msh2;Msh6(G1142D) (Saccharomyces cerevisiae;Saccharomyces cerevisiae). The data set can be described thus: SPR. The following applies: 0.1 and 2.5 mM ATP, LacI; printed as no more than 0.86; SPR on streptavidin surface; buffer, salt, pH and temperature not given in the material; with or without 0.1-2.5 mM ATP; LacI end block, released by 1 mM IPTG.
Data set [8] concerns Msh2;Msh6;Mlh1;Pms1 (Saccharomyces cerevisiae;Saccharomyces cerevisiae;Saccharomyces cerevisiae;Saccharomyces cerevisiae). The data set can be described thus: SPR. The following applies: ATP, LacI; SPR on streptavidin surface; buffer, salt, pH and temperature not given in the material; with or without 0.1-2.5 mM ATP; LacI end block, released by 1 mM IPTG.

A word on the stoichiometry N: it is a count of units in the complex or per binding partner. Turning to “S. cerevisiae Mlh1–Pms1 (from UniProt P38920 1-769; P14242 1-873) (complex)”, in data set [1], the stoichiometry N was 2.06 to 3.75. “S. cerevisiae Msh2–Msh6 (WT) mutant Msh6:K988M [S. cerevisiae] / S. cerevisiae Mlh1–Pms1 [S. cerevisiae] chain 4 K988M” showed a screen value in data set [2] of 3.4. Take 236-bp +T mispair DNA: in data set [3], the binding signal (% of WT RUmax) is 100. The substance “S. cerevisiae Msh2–Msh6 (WT) mutant Msh6:K988A [S. cerevisiae] / S. cerevisiae Mlh1–Pms1 [S. cerevisiae] chain 4 K988A” displayed a screen value in data set [2] of 3.3. On the same count and under the same terms, the result for “S. cerevisiae Msh2–Msh6 (WT) mutant Msh6:K988R [S. cerevisiae] / S. cerevisiae Mlh1–Pms1 [S. cerevisiae] chain 4 K988R” reads 2.4; that for “S. cerevisiae Msh2–Msh6 (WT) mutant Msh2:K694A [S. cerevisiae] / S. cerevisiae Mlh1–Pms1 [S. cerevisiae] chain 3 K694A”, 3.5; that for “S. cerevisiae Msh2–Msh6 (WT) mutant Msh2:K694R [S. cerevisiae] / S. cerevisiae Mlh1–Pms1 [S. cerevisiae] chain 3 K694R”, 4.3. Consider “236-bp mispaired DNA, double end-blocked”, for which the binding signal (Msh2-Msh6 per DNA (maximum)) in data set [4], in data set [5] and in data set [6] was 1 throughout. Moreover, the binding signal (Msh2-Msh6 per DNA) in data set [7] is below 0.86. The binding signal (Mlh1-Pms1 per Msh2-Msh6) in data set [8] is 1.07. In turn, “S. cerevisiae Msh2–Msh6 (WT) mutant Msh2:K694M [S. cerevisiae] / S. cerevisiae Mlh1–Pms1 [S. cerevisiae] chain 3 K694M” showed a screen value in data set [2] of 4.9.
